Results taken from paper PMC12177098, “A human-like glutaminase-free asparaginase is highly efficacious in ASNS^low leukemia and solid cancer mouse xenograft models” (Cancer letters, 2024).
Each block holds one molecule with its values, some of them ahead of it.

Tests used:
EBD-200 = target: T1, EBD-200 (Cavia porcellus, UniProt H0W0T5); settings: read-out: EBD-200 ^a; 50 mM Tris-HCl pH 7.5, 200 mM NaCl, 37 °C
T1 construct: gene ASPG
Source text: continuous coupled NADH spectrophotometric assay (malic dehydrogenase / glutamic-oxalacetic transaminase) on EBD-200

E. coli L-ASNase (EcA) = target: T2, E. coli L-ASNase (EcA) (Escherichia coli, UniProt P00805); test: continuous coupled NADH assay (L-glutamic dehydrogenase); NMR; type: biochemical; settings: 5 mM GLN, 10 nM enzyme (spectrophotometric); 0.1 and 2 μM enzyme (NMR)
T2 construct: gene ansB; made in cytosol of E. coli C41(DE3) from His6-SUMO-pET14b, His-SUMO tag cut with SUMO protease, gel filtration; family forms tetramers
T2 sequence (P00805 23-348): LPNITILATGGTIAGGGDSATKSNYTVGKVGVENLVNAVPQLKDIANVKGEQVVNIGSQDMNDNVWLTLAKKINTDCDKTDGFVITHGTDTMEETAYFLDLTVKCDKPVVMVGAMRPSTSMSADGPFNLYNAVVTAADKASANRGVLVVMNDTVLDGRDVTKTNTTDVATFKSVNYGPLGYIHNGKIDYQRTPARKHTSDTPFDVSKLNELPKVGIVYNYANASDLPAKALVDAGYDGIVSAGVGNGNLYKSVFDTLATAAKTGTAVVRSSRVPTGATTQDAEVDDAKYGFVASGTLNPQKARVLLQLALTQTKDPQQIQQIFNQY

[1] = substrate: NC(=O)C[C@H](N)C(=O)O; test: continuous coupled NADH spectrophotometric assay (malic dehydrogenase / glutamic-oxalacetic transaminase); type: biochemical, Escherichia coli; settings: 50 mM Tris-HCl pH 7.5, 200 mM NaCl, 37 °C
purified protein = substrate: NC(=O)C[C@H](N)C(=O)O; test: purified protein; settings: 50 mM Tris-HCl pH 7.5, 200 mM NaCl, 37 °C, in-house preparation, 0.6 % WT contamination, printed as >1.4 mM

T1 sequence (H0W0T5 1-359): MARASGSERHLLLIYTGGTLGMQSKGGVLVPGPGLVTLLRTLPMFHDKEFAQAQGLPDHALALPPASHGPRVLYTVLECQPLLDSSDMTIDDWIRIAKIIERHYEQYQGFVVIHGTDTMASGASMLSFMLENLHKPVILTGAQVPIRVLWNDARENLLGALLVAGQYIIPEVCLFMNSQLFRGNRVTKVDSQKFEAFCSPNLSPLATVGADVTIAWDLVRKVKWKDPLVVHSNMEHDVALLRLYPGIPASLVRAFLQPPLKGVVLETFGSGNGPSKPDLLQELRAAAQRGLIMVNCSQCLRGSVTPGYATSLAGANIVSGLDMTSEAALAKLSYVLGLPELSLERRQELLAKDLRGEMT

Km (EBD-200): 41.3 ± 0.7 µM
Molecule: NC(=O)C[C@H](N)C(=O)O [L-ASN]

Molecule: NC(=O)CC[C@H](N)C(=O)O [L-GLN]
continuous coupled NADH assay (L-glutamic dehydrogenase); NMR (E. coli L-ASNase (EcA)): GLNase activity is easily observed by EcA but not by EBD-200

B1: E. coli L-ASNase (EcA) (Escherichia coli K-12) (protein)
chain: LPNITILATGGTIAGGGDSATKSNYTVGKVGVENLVNAVPQLKDIANVKGEQVVNIGSQDMNDNVWLTLAKKINTDCDKTDGFVITHGTDTMEETAYFLDLTVKCDKPVVMVGAMRPSTSMSADGPFNLYNAVVTAADKASANRGVLVVMNDTVLDGRDVTKTNTTDVATFKSVNYGPLGYIHNGKIDYQRTPARKHTSDTPFDVSKLNELPKVGIVYNYANASDLPAKALVDAGYDGIVSAGVGNGNLYKSVFDTLATAAKTGTAVVRSSRVPTGATTQDAEVDDAKYGFVASGTLNPQKARVLLQLALTQTKDPQQIQQIFNQY
notes: made in cytosol of E. coli C41(DE3) from His6-SUMO-pET14b, His-SUMO tag cut with SUMO protease, gel filtration; family forms tetramers
Km [1]: 14 µM | kcat [1]: 44 s⁻¹

B2: E. coli L-ASNase (EcA) (Escherichia coli K-12; Q81L) (protein)
chain: LPNITILATGGTIAGGGDSATKSNYTVGKVGVENLVNAVPQLKDIANVKGEQVVNIGSLDMNDNVWLTLAKKINTDCDKTDGFVITHGTDTMEETAYFLDLTVKCDKPVVMVGAMRPSTSMSADGPFNLYNAVVTAADKASANRGVLVVMNDTVLDGRDVTKTNTTDVATFKSVNYGPLGYIHNGKIDYQRTPARKHTSDTPFDVSKLNELPKVGIVYNYANASDLPAKALVDAGYDGIVSAGVGNGNLYKSVFDTLATAAKTGTAVVRSSRVPTGATTQDAEVDDAKYGFVASGTLNPQKARVLLQLALTQTKDPQQIQQIFNQY
Km (purified protein): 1400 µM | kcat (purified protein): 1.3 s⁻¹
